Measured values published in patent publication US20180236032A1.
Read-outs that look alike come from different tables or passages of the source.

Key:
Assay in all cases: cell-based or functional assay
[1] = target: FGFR3c expressed on BaF3 cells (BaF3/FGFR3c)
[2] = target: FGFR3c expressed on BaF3 cells (BaF3/FGFR3c); remark: listed apart in the source
[3] = target: FGFR3c expressed on BaF3 cells (BaF3/FGFR3c); remark: listed apart in the source

- BaF3/FGFR3 cell proliferation, O.D. (WST-1), Sprifermin 100 ng/mL (CTR+) [1]: 0.15 O.D.
- BaF3/FGFR3 cell proliferation, O.D. (WST-1), Sprifermin 100 ng/mL (CTR+) [2]: 0.194 O.D.
- BaF3/FGFR3 cell proliferation, O.D. (WST-1), Sprifermin 100 ng/mL (CTR+) [3]: 0.5 O.D.
- BaF3/FGFR3 cell proliferation, Optical Density (WST-1), Sprifermin 100 ng/mL (CTR+) [3]: 0.5 O.D.
Substance: recombinant truncated FGF-18 (trFGF-18) (from UniProt O76093 28-196) (ligand)
